Fold and Kd data for 78 substances are collected here from US20140212436A1.

What is called Kd is the concentration at which binding is half-saturated.

Experiment [1] deals with recombinant human FcγRIIb protein (human) (UniProt P31994). As to the kind of experiment: Biacore.
For another experiment, the target named is FcγRIIaR (human) (UniProt P12318). As to the kind of experiment: Biacore. (In general: Surface plasmon resonance follows binding to a sensor surface in real time, without labels.)
Chain of FcγRIIaR (human) (P12318 34-217 H167R limits assumed): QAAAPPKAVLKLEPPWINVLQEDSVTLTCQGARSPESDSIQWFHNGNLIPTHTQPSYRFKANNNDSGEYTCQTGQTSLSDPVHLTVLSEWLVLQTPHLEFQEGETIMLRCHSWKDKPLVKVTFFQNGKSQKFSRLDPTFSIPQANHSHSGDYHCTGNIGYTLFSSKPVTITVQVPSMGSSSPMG

Chain of recombinant human FcγRIIb protein (human) (P31994 46-217 limits assumed): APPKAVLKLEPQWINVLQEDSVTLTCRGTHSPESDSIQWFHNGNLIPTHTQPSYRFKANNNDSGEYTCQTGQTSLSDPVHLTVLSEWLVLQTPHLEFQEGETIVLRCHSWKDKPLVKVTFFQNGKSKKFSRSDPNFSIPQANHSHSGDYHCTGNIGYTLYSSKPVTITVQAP

As for S239D/K326D/L328Y (antibody), in experiment [1], the Fold turned out to be 13 and the Kd stood at 113 nM.
As for S239D/A327D/L328Y (antibody), in experiment [1], the Fold amounted to 11.9 and the Kd is 123 nM.
The corresponding values for G236S/G237A (antibody) are 0.0797 and 18400 nM.
On to S239Q (antibody), for which the values for the Fold (in experiment [1]; with FcγRIIaR (human)) were 0.729 and 0.853, respectively. The figures for the Kd (in experiment [1]; with FcγRIIaR (human)) were 2010 nM and 1010 nM, respectively.
Take A330S (antibody): in experiment [1], the Fold turned out to be 0.0635 and the Kd was found to be 23100 nM.
On to S239D/S267A/L328Y (antibody), for which, in experiment [1], the Fold was determined as 19.8 and the Kd turned out to be 74.1 nM.
Turning to D265E (antibody), in experiment [1], the Fold was 0.417 and the Kd is 3520 nM. Further, in the experiment with FcγRIIaR (human), the Fold was found to be 0.307 and the dissociation constant Kd was 2790 nM.
The corresponding values for G237Q (antibody) are 0.147, 10000 nM, 0.0859 and 10000 nM.
In the case of S267D/A327D (antibody), in experiment [1], the Fold is 6.89 and the Kd is 213 nM.
The corresponding values for A327D/L328Y/I332E (antibody) are 2.31 and 636 nM.
On to G236D/H268D (antibody), for which, in experiment [1], the Fold was 11.6 and the Kd came out at 126 nM.
Take L235R (antibody): in experiment [1], the Fold is 5.58 and the Kd came out at 263 nM. Further, in the experiment with FcγRIIaR (human), the Fold worked out at 1.02 and the Kd amounted to 838 nM.
For the substance S239D/S267D (antibody), in experiment [1], the Fold worked out at 22.3 and the Kd amounted to 65.9 nM.
On to H268D/L328F/I332E (antibody), for which, in experiment [1], the Fold is 12.3 and the Kd is 119 nM.
As to L235P (antibody), the values for the Fold (in experiment [1]; with FcγRIIaR (human)) were 0.00585 and 0.122, respectively. Besides, the Kd in experiment [1] was found to be 251000 nM; with FcγRIIaR (human), 7010 nM.
P329E (antibody): the Fold stood at 0.147 in experiment [1] and 0.0859 with FcγRIIaR (human). Also, the Kd (in experiment [1]; with FcγRIIaR (human)) was 10000 nM each time.
For the substance S239D/H268E/L328Y (antibody), in experiment [1], the Fold was 21.7 and the Kd turned out to be 67.7 nM.
Consider H268N (antibody), for which the Fold in experiment [1] was 1.17; with FcγRIIaR (human) it was 1.79. For the same substance, the figures for the Kd (in experiment [1]; with FcγRIIaR (human)) were 1250 nM and 481 nM, respectively.
On to H268D/L328W/I332E (antibody), for which, in experiment [1], the Fold is 39.8 and the dissociation constant (Kd) was 36.9 nM.
On to G236W (antibody), for which, in experiment [1], the Fold was 0.147 and the Kd was 10000 nM. In the experiment with FcγRIIaR (human), this substance showed a Fold of 0.0859 and a Kd of 10000 nM.
As for K326D/L328Y/I332E (antibody), in experiment [1], the Fold came to 2.65 and the Kd amounted to 553 nM.
The corresponding values for S239D/H268D/L328W (antibody) are 51.1 and 28.7 nM.
S239D/H268D/L328W/I332E (antibody): in experiment [1], the Fold stood at 27.8 and the Kd was 52.7 nM.
As to L234D/G236N/S267E (antibody), in experiment [1], the Fold came to 5.11 and the Kd turned out to be 287 nM. Besides, in the experiment with FcγRIIaR (human), the Fold stood at 0.728 and the Kd stood at 1180 nM.
S239D/H268D/L328F/I332E (antibody): in experiment [1], the Fold was found to be 53.2 and the Kd came to 27.6 nM.
Turning to H268Q (antibody), in the experiment with FcγRIIaR (human), the Fold was found to be 1.58 and the Kd was found to be 544 nM.
Turning to L234E/H268D (antibody), in experiment [1], the Fold was 5.89 and the Kd was determined as 249 nM.
As for L235Y/G236D/S267E (antibody), in experiment [1], the Fold stood at 25 and the Kd was 58.7 nM. Besides, in the experiment with FcγRIIaR (human), the Fold was 9.67 and the Kd was 88.8 nM.
For the substance H268D/L328Y (antibody), in experiment [1], the Fold is 1.91 and the Kd turned out to be 767 nM.
As to G237Y (antibody), in experiment [1], the Fold was determined as 0.33 and the Kd amounted to 4450 nM. Further, in the experiment with FcγRIIaR (human), the Fold stood at 0.902 and the Kd amounted to 952 nM.
Turning to H268D/A327D/L328Y (antibody), in experiment [1], the Fold is 3.49 and the Kd was 420 nM.
With A330K (antibody), in experiment [1], the Fold is 1.55 and the equilibrium dissociation constant (Kd) was 947 nM.
Take G237K (antibody): in experiment [1], the Fold came out at 0.0147 and the Kd is 100000 nM. For the same substance, in the experiment with FcγRIIaR (human), the Fold was found to be 0.00859 and the Kd turned out to be 100000 nM.
For L235S (antibody), the values for the Fold (in experiment [1]; in the experiment with FcγRIIaR (human)) were 0.0147 and 0.00859, respectively. The Kd (in experiment [1]; in the experiment with FcγRIIaR (human)) was 100000 nM in each case.
With L235N (antibody), in experiment [1], the Fold stood at 0.147 and the Kd is 10000 nM. In the experiment with FcγRIIaR (human), this substance had a Fold of 0.0356 and a Kd of 24100 nM.
For the substance V266D (antibody), in experiment [1], the Fold turned out to be 0.147 and the Kd was determined as 10000 nM. In the experiment with FcγRIIaR (human), this substance displayed a Fold of 0.704 and a Kd of 1220 nM.
The corresponding values for G237S (antibody) are 0.147, 10000 nM, 0.081 and 10600 nM.
On to L235D/S239D (antibody), for which, in experiment [1], the Fold was found to be 4.11 and the Kd was determined as 357 nM.
As to G236A/G237A (antibody), in experiment [1], the Fold turned out to be 0.0578 and the Kd was 25400 nM.
Regarding S239D/H268D/L328F (antibody), in experiment [1], the Fold amounted to 8.79 and the Kd amounted to 167 nM.
For S298D (antibody), in experiment [1], the Fold was found to be 0.797 and the Kd was determined as 1840 nM. Also, in the experiment with FcγRIIaR (human), the Fold was determined as 1.45 and the Kd came to 592 nM.
Turning to L234W/S239E/S267E (antibody), in experiment [1], the Fold came to 42.3 and the Kd is 34.7 nM. Further, in the experiment with FcγRIIaR (human), the Fold was found to be 98.5 and the dissociation constant (Kd) stood at 8.72 nM.
Regarding L234P (antibody), in experiment [1], the Fold worked out at 0.0644 and the Kd was found to be 22800 nM. Further, in the experiment with FcγRIIaR (human), the Fold amounted to 0.0141 and the Kd came out at 60700 nM.
For L235E (antibody), in experiment [1], the Fold was 0.55 and the Kd worked out at 2670 nM. In the experiment with FcγRIIaR (human), this substance registered a Fold of 0.333 and a Kd of 2580 nM.
The corresponding values for A327G (antibody) are 0.353, 4160 nM, 0.319 and 2690 nM.
Regarding K326E (antibody), in experiment [1], the Fold amounted to 6.09 and the Kd amounted to 241 nM.
The corresponding values for H268D/A327D (antibody) are 7.68 and 191 nM.
Take G236H (antibody): in the experiment with FcγRIIaR (human), the Fold was determined as 0.135 and the Kd is 6350 nM.
With L234Y (antibody), the values for the Fold (in experiment [1]; in the experiment with FcγRIIaR (human)) were 0.0237 and 0.0511, respectively. Also, the figures for the Kd (in experiment [1]; with FcγRIIaR (human)) were 61900 nM and 16800 nM, respectively.
Take S267D/H268D (antibody): in experiment [1], the Fold stood at 14.2 and the Kd stood at 103 nM.
For the substance L235S/S267E (antibody), in experiment [1], the Kd stood at 37800 nM.
Take S267D/H268E (antibody): in experiment [1], the Fold is 17.8 and the Kd amounted to 82.6 nM.
The corresponding values for S239D/L328Y (antibody) are 5.56 and 264 nM.
The corresponding values for H268D/L328Y/I332E (antibody) are 4.89 and 300 nM.
The corresponding values for S239D/S267E/I332E (antibody) are 124 and 11.8 nM.
Consider S239D/L328Y/I332E (antibody), for which, in experiment [1], the Fold stood at 7.41 and the Kd was found to be 198 nM.
The corresponding values for S267A/L328Y/I332E (antibody) are 13.5 and 109 nM.
The corresponding values for S239D/H268D (antibody) are 14.4 and 102 nM.
The corresponding values for L235F/L328Y/I332E (antibody) are 3.31 and 443 nM.
As for S267A/H268D/L328Y (antibody), in experiment [1], the Fold is 10.7 and the Kd was 137 nM.
The corresponding values for L234W/L328Y/I332E (antibody) are 6.32 and 232 nM.
As for S267D/A327E (antibody), in experiment [1], the Fold is 12.1 and the Kd amounted to 121 nM.
Regarding H268D/K326D/L328Y (antibody), in experiment [1], the Fold is 18.6 and the Kd stood at 78.9 nM.
Regarding K326W (antibody), in experiment [1], the Fold worked out at 3.04 and the Kd worked out at 483 nM.
In the experiment with FcγRIIaR (human), L235Q (antibody) showed a Fold of 2.04 and a Kd of 420 nM.
Take S239D/L328F/I332E (antibody): in experiment [1], the Fold was found to be 8.34 and the Kd stood at 176 nM.
The corresponding values for H268E/L328Y/I332E (antibody) are 8.53 and 172 nM.
For L235Y/S267D (antibody), in experiment [1], the Fold was found to be 15.9 and the Kd was 92.2 nM.
The corresponding values for P331S (antibody) are 0.0372 and 39400 nM.
The corresponding values for L234W/H268D/L328Y (antibody) are 5.92 and 248 nM.
The corresponding values for S267E/L328Q (antibody) are 12.1 and 121 nM.
For S267E/H268D (antibody), in experiment [1], the Fold was found to be 33.3 and the Kd was 44 nM.
For the substance L328Y/I332E (antibody), in experiment [1], the Fold turned out to be 2.08 and the Kd is 705 nM.
Regarding S239D/H268D/L328Y/I332E (antibody), in experiment [1], the Fold came to 54.1 and the Kd was determined as 27.1 nM.
The corresponding values for L234W/S239D/L328Y (antibody) are 32.8 and 44.8 nM.
Regarding L235F/H268D/L328Y (antibody), in experiment [1], the Fold worked out at 3.97 and the Kd stood at 370 nM.
With S239D/H268D/L328Y (antibody), in experiment [1], the Fold stood at 24.4 and the Kd came out at 60.1 nM.
The corresponding values for L235F/S239D/L328Y (antibody) are 6.82 and 215 nM.
